# According to publication PMC11067747:
# Target: recombinant phytoplasmal effector causing phyllody 1 (PHYL1)
# Assay: cross-linking; recombinant IMP and PHYL1 mixed at 30 µM each in 1x PBS, 15 min at 20°C, then 1 mM bis(sulfosuccinimidyl)suberate (BS3) for 60 min; SDS-PAGE and Western blot with anti-IMP and anti-PHYL1
substance,measurement,value
"recombinant immunodominant membrane protein (IMP) without the transmembrane domain, amino acids 33-172, from Crotalaria witches' broom phytoplasma (domain or fragment)",stoichiometry N,1
